Data taken from the nanobody polyreactivity screen of Harvey et al. (2022).

Assay: yeast display, Sf9 membrane polyspecificity reagent, FACS + sequencing; frameworks hold sequencing errors
How it was run: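 Genes from sorted yeast were amplified by colony PCR, read by MiSeq 2 × 250 sequencing and filtered on CDR length. These cells carried a synthetic nanobody library in Saccharomyces cerevisiae BJ5465 and were sorted by FACS into low and high (top ~1%) gates on anti-HA and streptavidin fluorescence. Polyreactivity is labelled according to the gate of origin.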

Sequence | polyreactivity (PSR sort gate)
QVQLVESGGGLVQAGGSLRLSCAASGRTFFIYAMGWYRQAPGKERELVAAIRWRGGSTYYADSVKGRFTISRDNAKNTVYLLMNSLKPEDTAVYYCAASTRQARYEDYYWGQGTQVTVSS | high polyreactivity
QVQLVESGGGLVQAGGSLRLSCAASGRIFIYNAMGWYRQAPGKERELVAAINRSGVSTHYADSVKGRFTISRDHAKNTVYLQMNSLKPEDTAVYYCARTVYGARSYDYWGQGTQVTVSS | low polyreactivity
QVQLVESGGGLVQAGGSLRLSCAASGSIFFYYAMGWYRQATGKERELVAAISIAGSTNYADSVKGRFTISRDNAKNTVYLQMNSLKPEDTAVYYCAKEYRWGQSQLDYWGQGTQVTVSS | low polyreactivity
QVQLVESGGGLVQAGGSLLLSCAASGRIFFTNAMGWYRQAPRKERELVAAISKSGARTYYADSVKGRFTISRDKAKNTVYLQMNSLKPEDTAVYYCATDYAFPQYDDWGQGTQVTVSS | high polyreactivity
QVQLVESGGGLVQAGGSLRLSCAASGIIFSTYAMGWYRQAPGKERELVAAISDGGASTYYADSVKGRFTISRDNAKNTVYLQMNSLKPEDTAVYFCAAVQTAGQFRYGYWGQGTQVTVSS | high polyreactivity
QVQLVESGGGLVQAGGSLRLSCAASGLILNSYDMGWYRQAPGKERELVAAITRSGGNTFYADSVKGRFKISRDNAKNTVYLQMNSLNPEDTAVYYCNAYYTYWSQLYYWGQGTQVTVSS | high polyreactivity
QVQLVESGGGLVQAGGSLRLSCAASGFTSWYDMGWYRQAPGKEMELVAAISSGGSTNYADSVKGRFTISRDNAKNTVYLEMNSLKPEDTAVYYCNAECYETGVPYFGFYYWGQGTQVTVSS | low polyreactivity
QVQLVESGGALVQAGGSLRLSCAASGGIFSYYAMGWYRQAPGKERELVAAMSWSGTSTYYADSVKGRFTISRDNAKNTVYLQMNSLNQEDTAVYYCNKVTYSRAQYIGGDGYFWGEGTQVTVSS | high polyreactivity
QVQLVESGGGLVQAGGSLRLSCAGSGFTFIRYAMGWYRQAPGKERELVATITRRTGSTYYADSVKGRFTISRDNAKNTVYLQMYSLKPEDTAVYDCAGELYPSWSHTVFHGYNYWGQGTQVTVSS | high polyreactivity
QVQLVESGGGLVQAGGSLRLSCAASGRTYQDNAMGWYRQEPGTERELVAAISFNSDSTYYADSVKGRFTISRDNAKNTVYLQMNSLKPEDTAVYYCAAQVVPTLYLRPLDYWGQGTQVTVSS | low polyreactivity
QVQLVESGGCLVQAGGSLRLSCDASGSTFLTNTMGWYRQPPGKERELVAAISSGDSTYYADSVKGRFTISRDNAKNTVYLQMNSLKPEVTAVYYCARDVGWRNVPRDYWGQGTQVTVSS | low polyreactivity
QVQLVESGGGLVQAGGTLRLSCAASGLTFYRYAMGWYRQAPGKERELVATIRSGDGTYYADSVKGRFTISRDNAKNTVYLQMNSLKPEDTAVYYCAAKKVYRVYGRYEYWGQGTQVTVSS | high polyreactivity
QVQLVESGGGLDQAGGSLRSSCAASGRIFPSYAMGWYRQAPGKERELVAAISRSGGSTYYADSVKGRFTISRDNAKNTVDLQMICLKPEDTGVYYCAKQVYSGYSTRARSRYYEYYYWGQGNQVTVSS | high polyreactivity
QVQLQESGGGLVQAGVSLRLSCAASGNINDADIMGCYRQAPGKERELVTSITDGGSTNYADSVKGRFTISRDNAKNTVYLQMNSLKPEDTAVYYCAAIAYPVIPTSFDYNSDYSYWGQGTQVTVSS | low polyreactivity
QVQLVESGGGLVQAGGSLRLSCAASGFTVGYAMGWYRQAPGTERELVAAITRGGGTRTSYADSVKGRFTISRDNAKNTVYLQMNSLKPEDTAVYYCAARRWWSPRTQYDYWGQGTQVTVSS | high polyreactivity
QVQLVESGGGLVQAGGSLRLSCAASGFTFRRYAMGWYRQAPGKERELVAAISIRGGRTYYADSVKGRFTISRDNAKNTVYLQMNSLKPEVTAVYYCAAAPVGYGKRFYYWGQGTQVTVSS | high polyreactivity
QVQLVESGGGLVQAGGSLRLSCAASGITFYDNAMGWYRPAPGKERELVAGISYDGDSTYADSVKGRFTISRDNAKNTVYLQMNSLKPEDTAVYYCAALGPYDWLWAGDYWGQGTQVTVSS | low polyreactivity
QVQLVESGGGLVQAGGSLRLSCAASGRTFLRNTMGWYRQAPGKERELVAAISRSGATTYYADSVKGRFTISRDNAKNTVYLQMNSLKPADTAVYYCAALGQGRTSATSFVDYEYWGQGTQVTVSS | high polyreactivity
QFQLVESGGGLVQAGGSLRLSCAASGRIFTYYAMGWYRQAPGKEWELVAAISTSGGSTYYADSVKGRFTISRDNANNTVYLQMNSLKPEDTAVYYCAKVYPPRYYRDYNYWGQGTQVTVSS | high polyreactivity
QVQLVESGGGLVQAGGSLRLSCAASGSIFLYYTMGWYRQAPGKERELVAAITWGGGTTYYADSVKGRFTISRDNAKNTVYLQMNSLKPEDTAVYYCAAEGSYPRMDYWGQGTQVTVSS | low polyreactivity
QVQLVESGGGLVQAGGSLRLSCAASGSTFPRYAMGWYRQAPGKERELVAAISSSGRTYYADSVKGRFTISRDNAKNTVYLQMNSLKPEDTAVYYCNAPVARGEASYYWGQGTQVTVSS | high polyreactivity
QVQLVESGGGLVQAGGSLRLSCAASGLIFRRYAMGWYRQAPGKERELVAAINLSGGSTYYADSVKGRFTISRDNAKNTVYLQMNSLKPEDTAVYYCNAVSVYSLPRVGGRYDYWGQGTQVTVSS | high polyreactivity

Sequence | polyreactivity (PSR sort gate)
QVQLVESGGGLVQAGGSLRISCAPSGSTFPRYAMGWYRQAPGKEREFVAVIWSGGSTYYADSVKGRFTISRDNAKNTVYLQMNSLKPEDTAVYYCAAEYHTLSKYSGYATHDYWGQGTQVTVSS | low polyreactivity
QVQLVESGGGLVQAGGSLRLSCAASGSTLSSYDMGWYRQAPGKERELVASISSGGSTYYADSVKGRFTISRDNAKNTVYLQMNSVKPEDTAVYYCLYWSYDWGQGTQVTVSS | low polyreactivity
QVQLVESGGGLVQAGGSLRLSCAASGFIFRYYAMGWYRPAPGKERELVATISSGGGTHYADSVKGRFTISRDNAKNTVYLQMNSLKPEDAAVYYCNARGYRRLRTRVDYWGQGTQVTVSS | high polyreactivity
QVQLVESGGGLVQAGGSLRLSCAASGRTFGPYAMGWYRQAPGKERELVAAIRYIDDSTFYADSVKGRFTISRDNAKNTVYLQMNSLKPEDTAVYYCAAQRRVVGRHGLSLIRYDYWGQGTQVTVSS | low polyreactivity
QVQLVESGGGLVHAGGSLRLICASSGFIFWAYAMGWYRQAPGKERELVAAISNNGVSTYYADSVKGRFTISRDIAKNTVYLQMNSLIPEDTAVYYCGATGVRSKRLASQWKLDYWGQGTQVTVST | high polyreactivity
QVQLVESGGGLVQAGGSLRLSCAASGFTFEYYAMGWYRQAPGKERELVAAIRSDSGTNYADSVKGRFTISRDNAKNTVYLQMNSLIPEDTAVYYCAAPTVVLIDYDYWGQGTQVTVSS | low polyreactivity
QVQLVESGGGLVQAGGSLRLSCAASGSTFVYYDMGWYRQAPGKERELVADISDSGGSTNYADSVKGRFTISRDNAKNTVYLQMNSLKPEDTAVYYCAADSADPTEYDYWGQGTQVTVSS | low polyreactivity
QVQLVESGGGLVQAGGSLRLSCAASGFTFTTYVMGSYRQAPGKERELVAAISRRGTSTRYADSVKGRFTISRDNAKNTVYLQMNSLKPEDTAVYYCAADRPYSIVPYDYWGQGTQVTVSS | high polyreactivity
QVQIVESGGGLFQAGGSLRISCAASGRIFQYYTMGWYRQAPGKERELVATISRRGGTTYYADSVKGRFTISRDNAKNTVYLQMNSLKPEDTAVYYCNADSRTYRYYWSYGYWGQGTQVTVSS | high polyreactivity
QVQLVESGGGLVQAGGSLRLSCAASGIIFIHYTMGWYRQAPGKERELVAAISWSGGSTYYADSVKGRFTISRDNAKNTVYLQMNSLKPEDTAVYYCAADYIFYHRMYYWGQGTQVTVSS | high polyreactivity
QVQLVESGGGLVQAGGSLRLSCAASGIIFTYYAMGWYIQAPGKERELVAGITWSGTTTYYADSVKGRFTISRDNAKKTVYLQMNSLKPEDPAVYYCNALGYYEHDYWGQGTQVTVSS | low polyreactivity
QDQRVESGGGLVQAGGSLRLSCAASGITLEFYAMGWYRQAPGNERELVARIRSGGSTNYAVSVKGRFTISRDNAKNTVYLQMNSLKPDDTAVYYCAAYLRTDRYGYWGQGTQVTVSS | high polyreactivity
QVQLQEGGGGLVQAGGSLRLSCAASGYIFNGDWKGWYRQAPGKERELVATINYGATTNYADSVKGRFTISRDNAKNTVYLQMNSLKPEDTAVYYCAVGGHGAQLYVYWGQGTQVTVSN | high polyreactivity
QVQLVESGGGLVQAGGSLRLSCAASGSTFNSYVMGWYRQAPGQERELVAAITWSGGRTYYADSVKGRFTISRDNAKNTVYLQMNSLKPEDTAVYYCARKKRRGRDWGYDYWGQGTQVTVSS | high polyreactivity
QDQLVESGGGLVQAGGSLRLSCAASGSTFVDNAIGWYRQAPGKERELVAAISRGGSTHYADSVKGRFTISRDNAKNTVYLQMNSLKPEDTAVYYCAAVIDSREEYWGQGTQVTVSS | high polyreactivity
QVQLVESGGGLVQAGGSLRLSCAASGSTFGDYTMGLYRQAPGKERELVAAITLTGGSTYYADSVKGRFTISRDNAKNTVYLQMNSLKPEDTAVYYCAKEWIFDFNYWGQGTQVTVSS | low polyreactivity
QVQLVESGGGLVQAGGSLRLSCASSGNTFYGYAMGWYRQAPGKERELVASITLSGDSTYYADSVKGRFTISRDNAKNTVYLQMNSLKPEDTAVYYCAGVYTYPLGYYHYTYDYWGQGTQVTVSS | low polyreactivity
QVQLVESGGGLVQAGGSLRLSCAASGRIFVTNTMGWYRQAPGKERELVAAIDNSAGSTYYADSVKGRFTISRDNAKNTVYLQMNSLIPEDTAVYYCAADYPPYYAYGYWGQGTQVTVSS | low polyreactivity
QVQLVESGGGLVQAGGSLRLICAASGRTFWNYAMGWYRQAPGKERELVAVISFSDGSTYYADSVKGRFTISRDNAKNTVYLQMNSLKPEDTAVYYGAAKGPRRWGSGFDYWGQGTQVTVSS | low polyreactivity
QVQLVESGGGLVQAGGSLRLSCAATGNTFLWYARGWYRQAPGKERELVAAITWSGGRTYYADSVKGRFTISRDNALYTVYLQMHSLKPEDTAVYYFAADYGYFLGGVYFHKVKFDYWGQGTQVTVSS | high polyreactivity
QVQLVESGGGLVQAGGSLRLSCAASGSIFLHNAMGWYRQAPGKERELVAGITSSGTSTYYADSVKGRFTISRDNEKNTVYLQMNSLKPEDTAVYYCAAYRYGSRGGYCGQGTQVTVSS | high polyreactivity
